Literature values as cited in PMC3491057, “Proliferating Cell Nuclear Antigen (PCNA) Interactions in Solution Studied by NMR” (PLoS ONE, 2012).

Target: T1, human PCNA (Homo sapiens, UniProt P12004)
T1 construct: His6 tag with PreScission protease cleavage site (N, cleaved yes); made in house; host or cells: E. coli
Details: PIP-box fragments
Excerpt: The CDK inhibitor p21 mediates the cellular response to DNA damage by arresting the cell cycle at the G1 phase, inhibiting the progression into the S phase and thus DNA replication. It is an intrinsically disordered protein with an N-terminal sequence similar to other CDK-inhibitory proteins (including p27^Kip1, p57^Kip2, and p27^XIC1) and a C-terminal region containing a PIP-box. […] The smallest p21 fragment still competing with p21^20 ... || We have characterized the thermodynamics of the p21^20 and p21^12 peptides binding to PCNA by Isothermal Titration Calorimetry (ITC) in the same buffer (PBS pH 7.0) and at the same temperature (35°C) as the NMR experiments described below (Figure 3 and Figure S2). To allow comparison with data in the literature for the p21^20 [34], ITC experiments were also carried out at 30°C.

T1 sequence (P12004 whole entry): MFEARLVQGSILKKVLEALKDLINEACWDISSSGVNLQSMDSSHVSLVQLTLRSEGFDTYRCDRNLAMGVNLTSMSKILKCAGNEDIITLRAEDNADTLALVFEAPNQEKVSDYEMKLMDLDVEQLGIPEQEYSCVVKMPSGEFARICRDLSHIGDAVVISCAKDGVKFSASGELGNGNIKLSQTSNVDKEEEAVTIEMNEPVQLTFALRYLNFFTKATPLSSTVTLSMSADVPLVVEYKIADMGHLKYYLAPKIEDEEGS

| Kd [µM] | Substance |
| --- | --- |
| 1.5 | p66^22: PIP-box fragment of p66, subunit 3 of human replicative DNA polymerase-δ (POLD3) (KANRQVSITGFFQRK) |
| 60 | Fen-1^22: PIP-box fragment of Flap endonuclease 1 (SRQGSTQGRLDDFFKVTGSL) |
